One data set relates to CHO-parent cells. The data set can be described thus: Flow cytometry binding assay on CHO-parent cells (background binding). Details: species or system Chinese Hamster. The protocol:
GLP-1R IgG clones were tested in a binding assay coupled to flow cytometry analysis as follows: FLAG-GLP-1R-GFP expressing CHO cells (CHO-GLP-1R) and CHO-parent cells were incubated with 100 nM IgG for 1 h on ice, washed three times and incubated with Alexa 647 conjugated goat-anti-human antibody (1:200) (Jackson ImmunoResearch Laboratories, 109-605-044) for 30 min on ice, followed by three washes, centrifuging to pellet the cells between each washing step. All incubations and washes were in buffer containing PBS+1% BSA. For titrations, IgG was serially diluted 1:3 starting from 100 nM down to 0.046 nM. Cells were analyzed by flow cytometry and hits (a hit is an IgG that specifically binds to CHO-GLP-1R) were identified by measuring the GFP signal against the Alexa 647 signal. Flow cytometry data of binding assays with 100 nM IgG are presented as dot plots. Analyses of binding assays with IgG titrations are presented as binding curves plotting IgG concentrations against MFI (mean fluorescence intensity).

The target of data set [1] is T1, GLP-1R (Homo sapiens, UniProt P43220). The data set can be described thus: Ec50. Details: The full length human GLP-1R gene (UniProt-P43220) with an N-terminal FLAG tag and C-terminal GFP tag; expressed in transfected cells. An excerpt: Table printed on a drawing sheet, FIG. 16A
The target of data set [2] is T1, GLP-1R. The data set can be described thus: cAMP assays (agonist and antagonist mode), GLP-1R over-expressing CHO-K1 cells. The format is cell-based. Also noted: host or cells: CHO-K1. The settings on record: pre-incubation with fixed concentration of IgG (100 nM), then GLP-1 7-36 titration. The protocol: CAMP assays. GLP-1R IgG clones were tested for their potential effects on GLP-1R signaling by performing cAMP assays obtained from Eurofins DiscoverXX. The technology involved in detecting cAMP levels is a no wash gain-of-signal competitive immunoassay based on Enzyme Fragment Complementation technology. Experiments were designed to test for either agonist or antagonist activity of the IgG clones. To test for agonist activity of the IgGs, cells were stimulated with IgG incubating for 30 min at 37° C. […] Intracellular CAMP levels were detected by following the assay kit instructions.
Target sequence in this assay (P43220 24-463): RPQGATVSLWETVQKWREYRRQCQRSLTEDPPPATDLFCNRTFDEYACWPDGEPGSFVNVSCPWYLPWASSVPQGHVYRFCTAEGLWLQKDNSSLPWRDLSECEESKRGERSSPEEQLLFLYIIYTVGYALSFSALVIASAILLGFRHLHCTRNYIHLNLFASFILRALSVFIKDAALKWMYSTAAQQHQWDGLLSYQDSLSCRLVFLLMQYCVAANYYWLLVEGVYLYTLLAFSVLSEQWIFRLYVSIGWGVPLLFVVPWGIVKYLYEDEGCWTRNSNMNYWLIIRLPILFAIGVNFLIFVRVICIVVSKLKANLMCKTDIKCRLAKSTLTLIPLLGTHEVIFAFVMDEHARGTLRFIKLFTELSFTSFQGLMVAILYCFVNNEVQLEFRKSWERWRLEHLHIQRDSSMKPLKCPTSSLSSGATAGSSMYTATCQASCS

The nature of data set [3]: Rat PK study, ELISA for human IgG in plasma. The settings on record: 10 mg/kg IV, 2-week PK study, beta phase. The data set is classed as in vivo. The protocol: The rat PK study was done at Charles River Laboratories, One Innovation Dr, 3 Biotech, Worcester, MA 01605. 5 Male Sprague-Dawley rats per group were allowed to acclimate after receiving at test facility for a minimum of 3 days before dosing. […] Serial blood samples were collected via jugular vein cannula with ˜250 ul volume at each time point: pre-dose, 0.0833, 0.25, 0.5, 1, 2, 4, 8, 24, 48, 72, 96, 168, 240 and 336 hours post dose. Blood samples were collected into K2EDTA tubes and stored on wet ice until processed to plasma by centrifugation (3500 rpm for 10 minutes at 5° C.) within 30 minutes of collection. Plasma samples were then transferred into an appropriate tube containing DPP-4 (3.3 μL for 100 μL of plasma) and frozen on dry ice. To measure the human IgG in rat plasma samples, sheep anti-Human IgG (1 mg/mL) was used as coating reagent) (The binding site, Lot No. AU003.M), and goat anti-Human IgG, HRP (H&L) (1 mg/mL) was used as detection reagent) (Bethyl, cat #A80-319P) in an ELISA assay. Stock solutions of human IgG standards and QCs were prepared by spiking human IgG into rat plasma. […] The semi-logarithmic sigmoid calibration curve was obtained by plotting the absorbance response against concentration. Concentrations of analyte in the test samples were determined by computer interpolation from the plot of the calibration curve.

Data set [4] is described as follows: Insulin Tolerance Test (ITT). The format is in vivo, mouse. The note with it: for Area Under the Curve (AUC) in ITT: vs control. The protocol: Animals. All animal procedures were approved by Institutional Animal Care and Use Committee (IACUC) at the University of California San Francisco and were conducted in accordance with the National Institutes of Health Guide for the Care and Use of laboratory Animals. C57BL/6NHsd (Envigo RMS, LLC) male littermates at 8-10 weeks of age, weighing ˜20-28 grams, were used in all the studies described. The mice were housed in a room that was temperature (22-25 C) and light controlled (12-h: 12-h light/dark cycle starting at 7 AM. The mice were fed with chow diet with 9% fat (PicoLab mouse Diet 20 (#5058), Lab Supply, Fortworth Texas, USA) for the duration of housing at the UCSF animal care facility.
1. mAb administered as a single dose, 15 hours prior to GTT and 21 hours prior to ITT. 2. mAb administered as a double dose, 15 hours prior to GTT and 21 hours prior to ITT plus a second mAb dose 2 hours prior to GTT and ITT. 3. mAb as a single dose 6 hours prior to GTT and ITT. 4. mAb single dose 2 hours prior to GTT and ITT.
Extendin 9-39 Peptide (MedChemExpress, Cat. No.: HY-P0264) were dosed at 1.0 or 0.23 mg/kg at three different administration regimen groups. 1. Extendin administered as a single dose, 21 hours prior to ITT. 2. Extendin administered as a double dose, 21 hours prior to ITT plus a second Extendin dose 2 hours prior to ITT. 3. mAb as a single dose 6 hours prior to ITT.
An Insulin Tolerance Test (ITT) was conducted to assess two different anti-GLP1 mAbs (agonist and antagonist) effect on insulin sensitivity following acute insulin administration. 8 or 10-week old male mice were fasted for 6 hours and body weight was recorded before and after fasting. To avoid circadian variations in mouse blood glucose levels this testing was performed at fixed times. Blood samples were collected by tail nick and baseline glucose was measured prior to insulin injection. Mice were injected, i.p., with a single bolus (0.75 U/Kg body weight) of human insulin (Novolin, Novo Nordisk) and blood glucose levels were measured at 15, 30, 45, 60 and 120 minutes after insulin injection. Blood glucose levels were monitored using a OneTouch Ultra 2 glucose monitor (LifeScan, Inc.).

The target in data set [5] is T1, GLP-1R. The data set can be described thus: Beta arrestin recruitment assay, GLP-1R overexpressing CHO-K1 cells. The format is cell-based. The settings on record: 100 nM IgG pre-incubated 1 hr. Details: host or cells: CHO-K1. The protocol:
Beta arrestin recruitment assy. β-arrestin recruitment assay was obtained from Eurofins DiscoverXX (Cat #93-0300E2) that utilized untagged GLP-1R overexpressing CHO-K1 cells. […] Expanded cells were seeded into 96 well plates at 5,000 cells/well, and the experiment was performed 48 hours after plating cells. […] Add 22.5 uL of detection solution to each well, tap gently and briefly spin down. Then incubate plates at RT for 1 hour in the dark. The plates were then read by a Chemiluminescence plate reader, Molecular Devices SpectraMax® M5, and output relative light units (RLU) data were analyzed using GraphPad Prism™.
Target sequence in this assay (P43220 24-463): as above

B1: GLP1R-3: antagonist GLP-1R IgG with GLP-1 motif in CDRH3 (SEQ ID NO 20) (antibody)
heavy: QVQLVESGGGVVQPGRSLRLSCAASGFTFSSYGMHWVRQAPGKGLEWVSFISYDESNKYYADSVKGRFTISRDNSKNTLYLQMNSLRAEDTAVYYCAKHMSMQEGAVTGEGQAAKEFIAWLVKGRVRADLVGDAFDVWGQGTLVTVSSASTKGPSVFPLAPCSRSTSESTAALGCLVKDYFPEPVTVSWNSGALTSGVHTFPAVLQSSGLYSLSSVVTVPSSNFGTQTYTCNVDHKPSNTKVDKTVERKCCVECPPCPAPPVAGPSVFLFPPKPKDTLMISRTPEVTCVVVDVSHEDPEVQFNWYVDGVEVHNAKTKPREEQFNSTFRVVSVLTVVHQDWLNGKEYKCKVSNKGLPAPIEKTISKTKGQPREPQVYTLPPSREEMTKNQVSLTCLVKGFYPSDIAVEWESNGQPENNYKTTPPMLDSDGSFFLYSKLTVDKSRWQQGNVFSCSVMHEALHNHYTQKSLSLSPGK
light: QSVLTQPPSVSAAPGQKVTISCSGSSSNIADNYVSWYQQLPGTAPKLLIYDNNKRPSGIPDRFSGSKSGTSATLGITGLQTGDEADYYCGTWDNYLGAGVFGGGTKLTVLGQPKAAPSVTLFPPSSEELQANKATLVCLISDFYPGAVTVAWKADSSPVKAGVETTTPSKQSNNKYAASSYLSLTPEQWKSHRSYSCQVTHEGSTVEKTVAPTECS
In the case of B1, the “Median RL1-H of Parent Singlets” value in the data set on CHO-parent cells (Table 6C, GLP1R-221 variants) was 234; in the data set with CHO-parent cells (Table 6D, GLP1R-222 variants), 302.5. Besides, in the data set on CHO-parent cells (Table 6E, IgG titration), the “Bmax CHO Parent” value was found to be 268. This molecule also gave an EC50 in the data set with GLP-1R [1] of 3.94 nM. In addition, the “antagonist activity: effect on GLP-1 7-36-induced GLP-1R cAMP signaling” value in the data set with GLP-1R [2] was “clear dose-dependent inhibition of the CAMP signal”. Further, the in vivo half-life in data set [3] is given as ~1 week. Besides, the “Area Under the Curve (AUC) in ITT” value in data set [4] (19+2 hour, GLP1R-3 20 mg/kg, Exendin 1 mg/kg) is listed as “significant (p<0.0001)”; in data set [4] (single 6 hour treatment, GLP1R-3 20 mg/kg, Exendin 1.0 and 0.23 mg/kg) it was “significantly (p<0.05) stabilizes”; in data set [4] (single 6 hour treatment, comparator antibody experiment, 20 mg/kg), “significantly (p<0.05) stabilized”. For the same molecule, the “blood glucose after insulin challenge” value in data set [4] (19+2 hours dosing regimen, C57BL/6NHsd mice) is recorded as “significantly stabilizes a higher blood glucose”; in data set [4] (single 6 hour dosing regimen, comparator antibody experiment, 20 mg/kg), “significantly stabilized a higher blood glucose”; in data set [4] (single 6 hour dosing regimen, compared to Exendin 9-39 or control), “significantly stabilizes a higher blood glucose”. Further, the “effect on GLP-1 7-36 induced β-arrestin recruitment” value in the data set with GLP-1R [5] is on record as “inhibition of GLP-1 7-36 peptide-induced beta arrestin recruitment”.

(Values after US12391762B2, “Methods and compositions relating to GLP1R variants” (Twist Bioscience Corporation, priority 2020, dated 2025).)
